From patent US20250207140

Target: SARS-CoV-2 spike protein (original strain) (SARS-CoV-2) (UniProt P0DTC2)
Assay: flow

Control (-) Apt targeting CD8
Kd: 312 nM
